Source: US20170189545A1

Experiments:
[1] = target: GLP-1 receptor; assay: comparison of IC50 values, competition with I-125 exendin-4 (9-39) on RIN-m5F cells
[2] = target: GLP-1 receptor; assay: competition with I-125 exendin-4 (9-39) on RIN-m5F cells expressing GLP-1R, gamma counting

## C40-PEG5K-Ex4 (linear) (peptide)
[1]
  fold better activity than Comparative example 1a (Lys^12-PEG5K-Ex4): 6 fold
  fold better activity than Comparative example 1b (Lys^27-PEG5K-Ex4): 2 fold
  fold better activity than Comparative example 2 (Nter-PEG5K-Ex4): 120 fold
[2]
  IC50: 1.04 nM

## exendin-4 (peptide)
[2]
  IC50: 0.23 nM
